Several values for one entry are separate records, joined by “and”; a condition that tells them apart may be missing. Identical values can stand only once. Like-named read-outs stand apart in the source and are kept apart here.
Key:
[1] = Oxygen binding: P50 (partial pressure of oxygen at 50% saturation) and Hill coefficient; conditions: Examples I-V and control
Procedure: Hemoglobin constitutes about 90% of the total protein in red blood cells. 100 ml of whole blood is capable of absorbing approximately 21 ml of gaseous oxygen due to the binding ability of hemoglobin. Equally important to the binding of oxygen, hemoglobin is also efficient in releasing the bound oxygen to tissues. The ability of hemoglobin to bind and release oxygen is often quantitatively expressed as the P50, the partial pressure of oxygen which results in fifty percent saturation of hemoglobin.
The resulting modified hemoglobin may then be tested to determine its P50 value so as to confirm that a clinically useful P50 has been achieved. Methods of P50 measurement include standard methods of analysis, such as, for example, methods utilizing the Hemox-Analyzer (TCS Medical Products Co., Huntingdon Valley, Pa.).
Following reduction, the hemoglobin may be reacted with an activated polyalkylene oxide under conditions which maintain the structural integrity of the oxygen binding site. In preferred embodiments of the invention, such conditions consist of a high anion concentration; in a specific embodiment this anion is chloride ion. In preferred embodiments, the chloride ion concentration is at least about 1.0M. […] According to the invention, the activated polyalkylene oxide may have one or more than one functional groups. The degree of modification for each preparation referred to in Table I is approximately 20 percent. This percent modification corresponds to about […] PEG molecules per each molecule of hemoglobin. The percent modification may be calculated according to the number of lysines modified by PEG and is based on a total of 48 surface lysines in bovine hemoglobin. The number may be determined by trinitrobenzene sulfonic acid (TNBS) assay (Habeef et al., 1966, Analyt. Biochem. 14:328-336).
(§1) The polyalkylene oxide modified hemoglobin may then be chemically characterized using methods known in the art. For example, the oxygen dissociation curve may be determined using standard techniques (for example, Imai et al., 1970, Biochim. Biophys. Acta 200: 189-196) allowing calculation of the P50 value. Additional parameters which would be desirable to measure include the methemoglobin content, the viscosity, the osmolality, the pH, and the Hill constant; the effects of changes in pH on the oxygen saturation curve may be determined as described in Bartels (1971, Blood oxygen dissociation curves: Mammals. in "Respiration and Circulation", Altman and Dittmer, Eds., Federation of American Societies for Experimental Biology, Bethesda).
Purification was carried out using a hollow-fiber ultrafiltration device with M.W. cutoff of 50 kD that is commercially available from American Fluid, Richboro, Pa. The advantage of this device relative to conventional tangential flat ultrafiltration membranes is its easy handling of viscous protein solutions such as the 6% PEG-Hb solution. Following purification, the P50 of the PEG-Hb was determined by a Hemox-Analyzer (TCS Medical Products Co., Huntington Valley, Pa.).

[2] = Viscosity and colloid osmotic pressure of PEG-Hb solutions; assay type: physicochemical
From the text: as §1

[3] = Methemoglobin content of PEG-Hb preparations; assay type: physicochemical; conditions: in preparation
From the text: as §1

[4] = Free iron by ferrozine assay; assay type: physicochemical; conditions: in preparation
From the text: The P50 of the above PEG-bHb was 29mm Hg (Table IV). […] Half-life of this example injected into rats after a 70 percent exchange transfusion was approximately nine hours (Table IV).

[5] = Endotoxin (LAL test)
[6] = Half-life and intravascular Met-Hb in rats after 70 percent exchange transfusion; assay type: in vivo; conditions: rats; for Half-life / Met-Hb at Half-life: 70% exchange transfusion
From the text: Blood circulating time of polyalkylene oxide-modified Hb may, for example, and not by way of limitation, be evaluated by monitoring the concentration of hemoglobin in the plasma fraction (at 540 nm) of blood samples sequentially collected following exchange transfusion with modified Hb. Hemoglobin disappearance may be plotted as a function of time.

[7] = test system: rats; assay: Blood pressure, heart rate and breathing in rats after 70 percent exchange transfusion; assay type: in vivo; conditions: 70% exchange transfusion
From the text: Acute toxicity studies may be performed in any suitable experimental animal. Preferably, a range of exposures may be tested; for example, by evaluating animals that have received a 50 or 70 percent exchange transfusion as compared to animals that have received a 100 percent exchange transfusion. Vital signs and visual observations should be recorded, and the animals may be sacrificed after a period of time estimated to correspond to one half-life of the hemoglobin formulation being tested. Histological evaluation using standard techniques may be used to determine the presence or absence of toxic effects on tissues including lung, kidney, liver, or brain.
The results of in vivo studies, in which rats were given a 70 percent exchange transfusion of hemoglobin prepared according to Examples I-V or control (native bovine hemoglobin) are shown in Table V (bracketed numbers are values obtained in rats that were not transfused). Note that the breathing rate decreased slightly, and the blood pressure increased by at most about 30-35 percent relative to control, showing a good physiologic response to the exchange transfusion.

[8] = in words; cited from earlier work
[9] = in vivo; cited from earlier work

| Hill coeff. [1] | p50 [1] [mmHg] | Substance | Osmotic Press. [2] [mmHg] | Viscosity [2] [cp] | MetHb [3] [%] | Free Iron [4] [µg/dL] | Endotoxin [5] | Half-life [6] | Met-Hb at Half-life [6] [%] | Breathing [7] [min⁻¹] | Heart Rate [7] [min⁻¹] | Mean Arterial Press. [7] [mmHg] | colloid osmolality [2] [mm Hg] | endotoxins ([5]; LAL test, in words) | intravascular Met-bHb formation ([6]; 70 percent exchange transfusion) [%] | P50 / oxygen binding of stroma-free hemoglobin [8] | transfusion half-life [9] | Half-life [9] |
| --- | --- | --- | --- | --- | --- | --- | --- | --- | --- | --- | --- | --- | --- | --- | --- | --- | --- | --- |
| 2.4 |  | CONTROL: control (native bovine hemoglobin) [reference compound] | 22 | 3.0 | < 5 | 24 | < .1 EU | 1.5 h | 16.5 | 100 | 304 | 90 |  |  |  |  |  |  |
| 2.2 | 24 | Example II: bovine hemoglobin deoxygenated through gas permeable membrane, conjugated to SC-PEG (5000) | 22 | 4.5 | < 5 | 27 | < .1 EU | 9.6 h | 5.8 | 104 | 408 | 119 |  |  |  |  |  |  |
| 2.05 | 25 | Example III: bovine hemoglobin conjugated with SC-PEG (MW 3000) at a molar ratio of 30:1 | 22 | 3.8 | < 5 | 20 | < .1 EU | 12.4 h | 13.8 | 79 | 408 | 132 |  |  |  |  |  |  |
| 1.8 | 20 | Example IV: bovine hemoglobin modified with SC-PEG (MW 2000) at a molar ratio of 40:1 | 22 | 3.2 | < 5 | 20 | < .1 EU | 13.0 h | 18.0 | 83 | 432 | 129 |  |  |  |  |  |  |
| 2.2 |  | Example V: polymerized bovine hemoglobin modified first by BSC-PEG (MW 4600) 2:1, then SC-PEG (MW 5000) 10:1 | 20 | 4.0 | 2 |  | < .1 EU | 19 h and 18.8 h | 12.0 | 90 | 423 | 97 | 22 | free of endotoxins | 12 |  |  |  |
|  |  | Stroma-free hemoglobin: stroma-free hemoglobin, taken out of the red blood cell microenvironment |  |  |  |  |  |  |  |  |  |  |  |  |  | bind oxygen too tightly (a low P50) | about 100 minutes |  |
|  |  | U.S. Pat. No. 4,529,719: stroma-free hemoglobin cross-linked with a bis-diaspirin ester, reacted with pyridoxal phosphate |  |  |  |  |  |  |  |  |  |  |  |  |  |  |  | approximately 20 hours |

Source: patent publication US5234903A, “Chemically modified hemoglobin as an effective, stable non-immunogenic red blood cell substitute” (Enzon, Inc., priority 1990, dated 1993)
